System: GST-Ras [GST: P08515]
Sequence (P08515 whole entry, looked up): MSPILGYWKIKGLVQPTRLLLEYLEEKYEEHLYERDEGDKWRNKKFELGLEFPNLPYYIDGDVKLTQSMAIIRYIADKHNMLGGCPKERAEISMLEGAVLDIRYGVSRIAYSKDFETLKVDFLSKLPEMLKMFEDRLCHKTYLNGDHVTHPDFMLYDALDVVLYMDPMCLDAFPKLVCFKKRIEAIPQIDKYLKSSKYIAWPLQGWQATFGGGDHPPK

Flag-tagged full-length RasGRF2
fold Ras activation in vitro (bound 32P-GTP, against Ras without GRFs set to 1): the 4.5 fold activation conferred by GRF2, used as a control

Source: US20020143164
